Test results: patent US20230220443

Molecular target: H3(1-53) peptide

B1: protein lysine N-methyltransferase (histone H3 lysine-9 specific) from Neurospora crassa (NcDIM-5) (protein)
chain: IRSFATHAQLPISIVNREDDAFLNPNFRFIDHSIIGKNVPVADQSFRVGCSCASDEECMYSTCQCLDEMAPDSDEEADPYTRKKRFAYYSQGAKKGLLRDRVLQSQEPIYECHQGCACSKDCPNRVVERGRTVPLQIFRTKDRGWGVKCPVNIKRGQFVDRYLGEIITSEEADRRRAESTIARRKDVYLFALDKFSDPDSLDPLLAGQPLEVDGEYMSGPTRFINHSCDPNMAIFARVGDHADKHIHDLALFAIKDIPKGTELTFDYVNGLTGLESDAHDPSKISEMTKCLCGTAKCRGYLW
In the case of B1, the Km for peptide H3(1-53), TM0936-coupled methyltransferase assay (absorbance 263 nm), SAM saturating, 7.6 nM NcDIM-5, glycine buffer pH 9.50 is reported as 0.9 µM.
